Patent US20230256114A1, “NOVEL MAYTANSINOIDS AS ADC PAYLOADS AND THEIR USE FOR THE TREATMENT OF CANCER” (priority 2020, published 2023)

What was measured:
[1] = Size exclusion chromatography (SEC) of ADC monomer and aggregates; type: physicochemical; conditions: for Aggregation rate (%): anti-Trop-2 ADC with the named payload, Cysteine conjugation
Description: Some embodiments of the invention relate to DM1s linked to antibodies via a non-cleavable linker. In this example, anti-Trop-2 antibody was reduced by adding antibody to TCEP (Tris (2-carboxyethyl) phosphine) dissolved in a pH-adjusted PBS EDTA buffer. The antibody/TCEP solution was incubated at 37° C. for 2-3 hrs. The reduced antibodies were buffer exchanged into conjugation reaction buffer. The BI-P203 payload dissolved in DMSO was added to a solution of reduced anti-Trop-2 monoclonal antibody at payload/antibody ratio of 7-30:1 in order to achieve different drug to antibody ratios (DARs). The payload/antibody solution was incubated for 1-2 hr at 20° C. while the reduced antibody was conjugated to BI-P203 payload via the maleimide group. After conjugation was completed, the reaction mixture was desalted and concentrated to yield anti-Trop-2-DM1 ADCs. The biochemical properties of the resulting ADCs were characterized using size-exclusion chromatography high pressure liquid chromatography (SEC-HPLC) to determine purity and aggregation content, and by using hydrophobic interaction chromatography HPLC (HIC-HPLC) to confirm drug loading (DAR). The conjugation procedure is illustrated in FIG. 12. The final ADC products are comprised of four or six or seven DM1-linker molecules. The cysteine conjugation method used in the conjugation process produces more homogenous ADCs compared to lysine conjugation method.

[2] = tested on: MDA-MB-468, SK-BR-3, Colo205, and A549 cells; assay: In vitro cytotoxicity assay of ADCs and free payloads (FIG. 20); type: cell-based; conditions: all tested cells
Description: Anti-Trop-2 ADCs were conjugated with different DM1 derivatives with similar DARs, and were tested ahead to ahead with anti-Trop-2-SMCC-DM1 and anti-Trop-2-vc-MMAE against BxPC-3 pancreatic cancer cells representing high Trop-2 expression, MDA-MB-468 breast cancer cells, N87 gastric cancer cells, and SK-BR-3 […] cancer cells representing moderate Trop-2 expression, Colo205 colon cancer cells representing low Trop-2 expression, and A549 lung cancer cells and MDA-MB-231 breast cancer cells with undetectable level of Trop-2. In vitro cytotoxicity assay was performed. Briefly, all cell lines were cultured in a suitable culture medium at 37° C. in a humidified incubator atmosphere of 5% CO2. Cells were plated in 96-well flat bottom plates. Cell seeding number ranged from 500 cells//100 ul/well to 6,000 cells/100 μl/well. Cells were allowed to adhere overnight at 37° C. in a humidified atmosphere of 5% CO2. ADCs were prepared from stock solution and diluted into appropriated working concentration 24 hours after cell seeding. […] Cell Counting Kit-8 solution (Dojindo China Co., Ltd, lot #PL701) was added to the wells for 1-4 hours at 37° C. and the absorbance at 450 nm was measured using a Microplate Reader (SpectraMax M5, Molecular Devices) and SoftMax Pro5.4.1 software. Dose-response curves were generated and IC50 was calculated using GraphPad Prism 7 three-parameter curve fitting. […]

[3] = Size exclusion chromatography (SEC) of ADC monomer and aggregates; type: physicochemical; conditions: anti-Trop-2 ADC with the named payload, Lysine conjugation, DAR 3.9
[4] = tested on: MDA-MB-468 breast cancer cells; assay: In vitro cytotoxicity assay (Cell Counting Kit-8, 72 hours); type: cell-based, human; conditions: FIG. 21
Description: Anti-Trop-2 ADCs were conjugated with different DM1 derivatives with similar DARs, and were tested ahead to ahead with anti-Trop-2-SMCC-DM1 and anti-Trop-2-vc-MMAE against BxPC-3 pancreatic cancer cells representing high Trop-2 expression, MDA-MB-468 breast cancer cells, N87 gastric cancer cells, and SK-BR-3 […] cancer cells representing moderate Trop-2 expression, Colo205 colon cancer cells representing low Trop-2 expression, and A549 lung cancer cells and MDA-MB-231 breast cancer cells with undetectable level of Trop-2. In vitro cytotoxicity assay was performed. Briefly, all cell lines were cultured in a suitable culture medium at 37° C. in a humidified incubator atmosphere of 5% CO2. Cells were plated in 96-well flat bottom plates. Cell seeding number ranged from 500 cells//100 ul/well to 6,000 cells/100 μl/well. Cells were allowed to adhere overnight at 37° C. in a humidified atmosphere of 5% CO2. ADCs were prepared from stock solution and diluted into appropriated working concentration 24 hours after cell seeding. […] Cell Counting Kit-8 solution (Dojindo China Co., Ltd, lot #PL701) was added to the wells for 1-4 hours at 37° C. and the absorbance at 450 nm was measured using a Microplate Reader (SpectraMax M5, Molecular Devices) and SoftMax Pro5.4.1 software. Dose-response curves were generated and IC50 was calculated using GraphPad Prism 7 three-parameter curve fitting.

[5] = Solubility of payloads and ADCs (comparison in words); conditions: inferred from Table 2
Description: The lipophilicity and aggregation rate of the ADCs of the present invention were characterized. The most commonly used measure of lipophilicity is LogP, which is the partition coefficient of a molecule between aqueous and lipophilic phases, usually octanol and water. […] In this experiment, the LogP of anti-Trop-2 BI-P203 and anti-Trop-2-SMCC-DM1 was calculated using ChemDraw software. Size exclusion chromatography (SEC) was used to characterize the ADC monomer and their aggregates.

[6] = target: T1, Trophoblast cell-surface antigen-2 (Trop-2) (human, UniProt P09758 27-323); assay: cell-based or functional assay
T1 sequence (looked up): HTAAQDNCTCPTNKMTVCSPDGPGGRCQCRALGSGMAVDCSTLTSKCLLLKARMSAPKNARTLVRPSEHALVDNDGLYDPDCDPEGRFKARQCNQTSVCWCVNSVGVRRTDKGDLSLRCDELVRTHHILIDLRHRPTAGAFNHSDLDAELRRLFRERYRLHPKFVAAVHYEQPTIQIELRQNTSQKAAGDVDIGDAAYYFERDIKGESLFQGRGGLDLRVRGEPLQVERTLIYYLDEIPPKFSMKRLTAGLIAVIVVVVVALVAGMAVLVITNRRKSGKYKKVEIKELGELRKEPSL

Molecule: COc1cc2cc(c1Cl)N(C)C(=O)C[C@H](OC(=O)C1CCC(CNC(=O)CCOCCOCCOCCOCCNC(=O)CCN3C(=O)C=CC3=O)CC1)[C@@]1(C)O[C@H]1[C@H](C)[C@@H]1C[C@@](O)(NC(=O)O1)C(OC)/C=C/C=C(\C)C2 (stereo partly shown) [BI-P208]
- Aggregation rate (%) ([1]; DAR 3.0): 2.04%
- Aggregation rate (%) ([1]; DAR 6.7): 9.46%
- Aggregation rate (%) ([1]; DAR 7.3): 6.02%

Molecule: COc1cc2cc(c1Cl)N(C)C(=O)C[C@H](OC(=O)[C@H](C)N(C)C(=O)CCCCCn1cc(COCCOCCOCCOCCNC(=O)CCN3C(=O)C=CC3=O)nn1)[C@@]1(C)O[C@H]1[C@H](C)[C@@H]1C[C@@](O)(NC(=O)O1)C(OC)/C=C/C=C(\C)C2 (stereo partly shown) [BI-P204]
- Aggregation rate (%) ([1]; DAR 2.8): 0.65%

Molecule: COc1cc2cc(c1Cl)N(C)C(=O)C[C@H](OC(=O)C1CCN(C(=O)CCOCCOCCOCCOCCOCCOCCNC(=O)CCN3C(=O)C=CC3=O)CC1)[C@@]1(C)O[C@H]1[C@H](C)[C@@H]1C[C@@](O)(NC(=O)O1)C(OC)/C=C/C=C(\C)C2 (stereo partly shown) [BI-P207]
- Aggregation rate (%) ([1]; DAR 3.4): 1.02%

Molecule: COc1cc2cc(c1Cl)N(C)C(=O)C[C@H](OC(=O)[C@H](C)N(C)C(=O)COCCn1cc(COCCOCCOCCNC(=O)CCN3C(=O)C=CC3=O)nn1)C1(C)O[C@H]1[C@H](C)[C@@H]1C[C@@](O)(NC(=O)O1)C(OC)/C=C/C=C(\C)C2 (stereo partly shown) [BI-P209]
- Aggregation rate (%) ([1]; DAR 6.2): 4.96%
- in vitro cytotoxic potency of the free payload compared with free BI-P203 [2]: slightly more potent than free BI-P203

Molecule: COc1cc2cc(c1Cl)N(C)C(=O)C[C@H](OC(=O)[C@H](C)N(C)C(=O)CCSC1CC(=O)N(CC3CCC(C(=O)ON4C(=O)CCC4=O)CC3)C1=O)[C@]1(C)O[C@H]1[C@H](C)[C@@H]1C[C@@](O)(NC(=O)O1)[C@H](OC)/C=C/C=C(\C)C2 (stereo partly shown) [SMCC-DM1]
- Aggregation rate (%) [3]: 3.6%

Molecule: COc1cc2cc(c1Cl)N(C)C(=O)C[C@H](OC(=O)C1CCN(C(=O)CCOCCOCCOCCOCCNC(=O)CCN3C(=O)C=CC3=O)CC1)[C@@]1(C)O[C@H]1[C@H](C)[C@@H]1C[C@@](O)(NC(=O)O1)C(OC)/C=C/C=C(\C)C2 (stereo partly shown) [BI-P206]
- Aggregation rate (%) ([1]; DAR 3.6): 0.76%

Molecule: COc1cc2cc(c1Cl)N(C)C(=O)C[C@H](OC(=O)[C@H](C)N(C)C(=O)CCOCCn1cc(COCCOCCOCCOCCNC(=O)CCN3C(=O)C=CC3=O)nn1)[C@@]1(C)O[C@H]1[C@H](C)[C@@H]1C[C@@](O)(NC(=O)O1)C(OC)/C=C/C=C(\C)C2 (stereo partly shown) [BI-P203]
- in vitro activity of the free payload compared with free SMCC-DM1 payload [4]: less activity than that of free SCMM-DM1 payload
- aggregation rate compared to SMCC-DM1 payload ([1]; ADCs of the payloads): decreased aggregation rate
- Aggregation rate (%) ([1]; DAR 3.5): 0.33%
- Aggregation rate (%) ([1]; DAR 6.2): 1.0%
- Aggregation rate (%) ([1]; DAR 7.0): 2.0%
- solubility of payload compared to SMCC-DM1 payload [5]: increased solubility

B1: Anti-Trop-2-BI-P203 (antibody, V domains shown)
VH: SALMSRLTISKDTSKNQFSLKLSSVTAADTAVYYCARDENWDGAWFAYWGQGTLVTVSS
VL: DIVMTQSPDSLAVSLGERATINCKSSQSLLNSGTRKNYLAWYQQKPGQPPKLLISWASSRESGVPDRFSGSGSGTDFTLTISSLQAEDVAVYYCKQSYNLFTFGGGTKVEIKR
modifications: BI-P203 maytansinoid drug-linker on reduced cysteines via the maleimide group; positions not given; DAR 3.5, 5.1 or 7
- IC50 (nM), in vitro cytotoxicity (CCK-8, 72 h), BxPC-3 cells (TROP2 +++), ADC at DAR 3.5 [6]: 0.48 nM
- IC50 (nM), in vitro cytotoxicity (CCK-8, 72 h), BxPC-3 cells (TROP2 +++), ADC at DAR 7 [6]: 0.59 nM
- IC50 (nM), in vitro cytotoxicity (CCK-8, 72 h), Colo205 cells (TROP2 +), ADC at DAR 7 [6]: 31.8 nM
- IC50 (nM), in vitro cytotoxicity (CCK-8, 72 h), MDA-MB-468 cells (TROP2 ++), ADC at DAR 5.1 [6]: 1.2 nM
- IC50 (nM), in vitro cytotoxicity (CCK-8, 72 h), MDA-MB-468 cells (TROP2 ++), ADC at DAR 7 [6]: 0.77 nM
- IC50 (nM), in vitro cytotoxicity (CCK-8, 72 h), NCI-N87 cells (TROP2 ++/+), ADC at DAR 3.5 [6]: 8.93 nM
- IC50 (nM), in vitro cytotoxicity (CCK-8, 72 h), NCI-N87 cells (TROP2 ++/+), ADC at DAR 7 [6]: 0.62 nM
